Tests used:
[1] = WO 2008/009798, cited from earlier work
[2] = tested on: tumor necrosis factor-α (TNF-α) produced by LPS activated neutrophils; assay: TNF-α production by LPS activated neutrophils (ELISA); format: cell-based, rat; settings: for TNF-α % Inhibition: relative to LPS only control
Description: (§1) The anti-inflammatory properties of the cationic fraction, IDP, and the combination of IDP with chondroitin and glucosamine were determined by measuring their ability to inhibit the production of the inflammatory compounds, tumor necrosis factor-α (TNF-α) and interleukin-6 (IL-6) produced by LPS activated neutrophils. […] Neutrophils were isolated from rat blood and incubated in the presence of LPS. LPS is derived from bacterial cell walls and is used to mimic a 'bacterial infection'. […] Two of these cytokine are TNF-α and IL-6. The concentrations of both cytokines produced by neutrophils exposed to LPS and the various test substances are summarised graphically in FIGS. 1 and 2 respectively. […] Aliquots from each set of triplicates were combined, and duplicates assayed for cytokine concentrations. The plate blank was subtracted from each individual data point. A VersaMax 96-well plate reader was used to colorimetrically assess the production of TNF-α and IL-6 as determined by the ELISA, using Rat TNF-α ELISA kit, R&D Systems, Cat # RTA00, and Rat IL-6 ELISA kit, R&D Systems, Cat # […]. The average cytokine concentration, standard deviation and standard error were calculated for each data set (sample and concentration). Preliminary statistical significance was assessed using independent Student t-tests at α≦0.05.

[3] = tested on: interleukin-6 (IL-6) produced by LPS activated neutrophils; assay: IL-6 production by LPS activated neutrophils (ELISA); format: cell-based, rat; settings: for IL-6 % Inhibition: relative to LPS only control
Description: as §1

Molecule	anti-inflammatory activity of the composition on its own [1]	anti-inflammatory activity compared with glucosamine and chondroitin sulphate alone ([1]; combined with glucosamine and chondroitin sulphate)	TNF-α ([2]; 1 μg/ml) [pg/mL]	TNF-α % Inhibition ([2]; 1 μg/ml) [%]	TNF-α ([2]; 10 μg/ml) [pg/mL]	TNF-α % Inhibition ([2]; 10 μg/ml) [%]	TNF-α ([2]; 100 μg/ml) [pg/mL]	TNF-α % Inhibition ([2]; 100 μg/ml) [%]	stimulation of TNF-α levels ([2]; highest concentration tested) [%]	effect on TNF-α, in words ([2]; lowest concentrations tested)	effect on TNF-α, in words ([2]; over the concentrations tested)	IL-6 ([3]; 1 μg/ml) [pg/mL]	IL-6 % Inhibition ([3]; 1 μg/ml) [%]	IL-6 ([3]; 10 μg/ml) [pg/mL]	IL-6 % Inhibition ([3]; 10 μg/ml) [%]	IL-6 ([3]; 100 μg/ml) [pg/mL]	IL-6 % Inhibition ([3]; 100 μg/ml) [%]	stimulation of IL-6 levels ([3]; highest concentration tested) [%]	effect on IL-6, in words ([3]; lowest concentrations tested)	effect on IL-6, in words ([3]; over the concentrations tested)
pure lactoferrin (90%): composition 1 of WO 2008/009798: pure lactoferrin (90%) (protein, UniProt P24627 20-708, looked up, 90% pure preparation) Lactotransferrin: APRKNVRWCTISQPEWFKCRRWQWRMKKLGAPSITCVRRAFALECIRAIAEKKADAVTLDGGMVFEAGRDPYKLRPVAAEIYGTKESPQTHYYAVAVVKKGSNFQLDQLQGRKSCHTGLGRSAGWIIPMGILRPYLSWTESLEPLQGAVAKFFSASCVPCIDRQAYPNLCQLCKGEGENQCACSSREPYFGYSGAFKCLQDGAGDVAFVKETTVFENLPEKADRDQYELLCLNNSRAPVDAFKECHLAQVPSHAVVARSVDGKEDLIWKLLSKAQEKFGKNKSRSFQLFGSPPGQRDLLFKDSALGFLRIPSKVDSALYLGSRYLTTLKNLRETAEEVKARYTRVVWCAVGPEEQKKCQQWSQQSGQNVTCATASTTDDCIVLVLKGEADALNLDGGYIYTAGKCGLVPVLAENRKSSKHSSLDCVLRPTEGYLAVAVVKKANEGLTWNSLKDKKSCHTAVDRTAGWNIPMGLIVNQTGSCAFDEFFSQSCAPGADPKSRLCALCAGDDQGLDKCVPNSKEKYYGYTGAFRCLAEDVGDVAFVKNDTVWENTNGESTADWAKNLNREDFRLLCLDGTRKPVTEAQSCHLAVAPNHAVVSRSDRAAHVKQVLLHQQALFGKNGKNCPDKFCLFKSETKNLLFNDNTECLAKLGGRPTYEEYLGTEYVTAIANLKKCSTSPLLEACAFLTR	Neither of these compositions showed significant anti-inflammatory activity	significantly better	–	–	–	–	–	–	–	–	–	–	–	–	–	–	–	–	–	–
Lactoferrin: milk immune defence protein (P24627), tested on its own (protein, UniProt P24627 20-708, looked up) Lactotransferrin: APRKNVRWCTISQPEWFKCRRWQWRMKKLGAPSITCVRRAFALECIRAIAEKKADAVTLDGGMVFEAGRDPYKLRPVAAEIYGTKESPQTHYYAVAVVKKGSNFQLDQLQGRKSCHTGLGRSAGWIIPMGILRPYLSWTESLEPLQGAVAKFFSASCVPCIDRQAYPNLCQLCKGEGENQCACSSREPYFGYSGAFKCLQDGAGDVAFVKETTVFENLPEKADRDQYELLCLNNSRAPVDAFKECHLAQVPSHAVVARSVDGKEDLIWKLLSKAQEKFGKNKSRSFQLFGSPPGQRDLLFKDSALGFLRIPSKVDSALYLGSRYLTTLKNLRETAEEVKARYTRVVWCAVGPEEQKKCQQWSQQSGQNVTCATASTTDDCIVLVLKGEADALNLDGGYIYTAGKCGLVPVLAENRKSSKHSSLDCVLRPTEGYLAVAVVKKANEGLTWNSLKDKKSCHTAVDRTAGWNIPMGLIVNQTGSCAFDEFFSQSCAPGADPKSRLCALCAGDDQGLDKCVPNSKEKYYGYTGAFRCLAEDVGDVAFVKNDTVWENTNGESTADWAKNLNREDFRLLCLDGTRKPVTEAQSCHLAVAPNHAVVSRSDRAAHVKQVLLHQQALFGKNGKNCPDKFCLFKSETKNLLFNDNTECLAKLGGRPTYEEYLGTEYVTAIANLKKCSTSPLLEACAFLTR	–	–	226.19	17.9	242.58	11.9	325.95	−18.4	18	no statistically significant effect	appeared not to act as anti-inflammatory	197.88	33.3	269.86	9.1	441.09	−48.6	48	no statistically significant effect	appeared not to act as anti-inflammatory

Source: patent US20120244226A1, “TREATMENT COMPOSITION AND METHOD” (DEC INTERNATIONAL NZ LIMITED, priority 2009, published 2012)
